Test results: the supplement of paper PMC12042874
± gives the uncertainty stated by the source.

Assay: amyloid nucleation score (Sup35N fusion, yeast selection) (log enrichment); library NNK3; higher = more nucleation; inactive = no reads after selection
Procedure, shortened: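 Using DiMSum, nucleation scores were taken as the log enrichment of output over input reads, centred on the mode score of non-aggregating sequences. The input and output reads came from Illumina sequencing of plasmid inserts, with sequences under 100 input reads excluded. The yeast were psi-negative, expressed Sup35N fused to peptides of 20 random codons, were induced with 100 μM copper sulfate for 24 hours, and were grown 7 days at 30°C on medium lacking adenine and uracil.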

Substance | amyloid nucleation score
VRGQFSSSVLGRCLGWAWTR | inactive
VRHGSMTDCYFLHTLDRREC | inactive
VRISHYA | inactive
VRIWLNVYGVVSLGGRRLLV | inactive
VRKPECSVVWVNQCWVQPPY | 2.15 ± 0.062
VRLVAMCWGHLDKNRALRRG | inactive
VRNVKSNANCCFN | inactive
VRQKALRNPQL | inactive
VRVMNGTRTSCLVR | -0.834 ± 1
VRVSLDRTGYKSSCHVVSRG | inactive
VRVVVISPGRSCRVNPSDSP | inactive
VRWYCS | inactive
VRYRVIHMDTFVS | 0.933 ± 0.16
VSCDEMHKINFYLKANVVLV | inactive
VSFMFFACDTFFSHAVIRTR | inactive
VSFRYAYYWFCRTMMTAAKR | inactive
VSGYNW | inactive
VSIHCGRVYDWEGGFGERVN | inactive
VSLGFEFMGFHAGW | 1.09 ± 0.15
VSLILFGRIFFHL | inactive
VSLLRGVLGLVV | inactive
VSMFMNRNQKSIKNRVRHYM | inactive
VSMSLDCM | inactive
VSNCFTSLQT | inactive

Substance | amyloid nucleation score
VSRHKFFRHSCAN | inactive
VSRKRQLWEKCGTFVQRASM | inactive
VSSFFSLPCTSAPVIDWVGV | inactive
VSSILQRIISYFRTARFNYL | inactive
VSSSDNSVEIDRVHKMSMVE | inactive
VSSWNSSMMIYMVLCIRMSG | inactive
VSTCT | inactive
VSTGTYFSVIKEEVRLGLLH | 0.537 ± 0.36
VSVDWGLPRFGYTYKIL | inactive
VSVLCMYFVVGPKMVRVSYG | inactive
VSVRVDLILKVVRRSSVWFT | inactive
VSYSNDKGIWIYGTSLYPGA | inactive
VTCWMVAVELKKIHYQCIES | inactive
VTEYKFKVFLPMRKRSVIMV | inactive
VTKPFTIKGTI | inactive
VTKVYGDVVLEWRHDVLFGG | 0.503 ± 0.32
VTLVNKKGWSFATAITMWKR | inactive
VTQSNGVHKGAR | inactive
VTRISGTETSDVYINI | 0.101 ± 0.6
VTRPVVSQ | inactive
VTSTQVMNMLD | inactive
VTVSHCRIRFFRLESDDGLC | -0.218 ± 0.88
VTYYKSMYTREHFWTLGNSF | 0.69 ± 0.21
VVEFRNFLGIM | inactive

Substance | amyloid nucleation score
VVGFDSCGRWEVNVSYDSGT | inactive
VVGIKKDRNNTYDSSWLASC | inactive
VVGSDGMFTCSCLREVR | inactive
VVHYSLVVPSDGW | inactive
VVLTMMHRHLYVSCKLRFCS | inactive
VVMHAYCWLWNYSDFSIMGS | 1.57 ± 0.094
VVMRFCWRKSTIVISFVTVM | inactive
VVMSWYLVVTI | 0.883 ± 0.26
VVQGGGELVWFMFYDARCGT | inactive
VVSAV | inactive
VVSFNPIKCIVCGV | inactive
VVSHGF | inactive
VVSIAIGKYNDRSMWW | 1.75 ± 0.071
VVSMQYCLFS | 2.81 ± 0.072
VVTHLALSKRSSAVTIFAWG | inactive
VVVGIGVAALYEPV | inactive
VWEFICVGVLC | 2.65 ± 0.05
VWGAHPLFGSISVARTISNW | inactive
VWPNGSKKYGLSRMTANSLL | inactive
VWQWKGRCHVTNRYWYFCSS | inactive
VWSEDIYFCIILRLMDKS | inactive
VWSVASYPSGPGKFCGGMTE | inactive
VWVDFGFPVHMIIL | inactive
VYASCTFNIEKVLSVVQTTF | 1.52 ± 0.087

Substance | amyloid nucleation score
VYCEPNMP | -0.163 ± 1.1
VYESFLLMLFYFRSDCKKKR | inactive
VYETELTFSARPRFCWCC | 0.094 ± 0.59
VYGASTLSAHMWR | inactive
VYGYELRCDLKGMLLS | inactive
VYIMYLSGCCRCHVPMNEGT | 2.05 ± 0.073
VYLDYGGLHLRVLHTCRFYC | inactive
VYLYIWQKVSGHHYGFQMDW | inactive
VYMGTVWCSRAI | inactive
VYPSTSTLNYVMLQLTPVNS | inactive
VYSDDVKVVYMYGTNPFDTV | inactive
VYSEFWVHMLLLSFRVIYIL | inactive
VYSMEPECIW | inactive
WAGGSDPRCNFKCLCVKGFC | inactive
WAVIKLMRSERTVGVWGSNT | inactive
WCFHDGLRAYVNFCRVYATN | inactive
WCLPNCPIVFNMHQLAHLSR | 0.021 ± 0.44
WCNMVRVHMF | inactive
WCPSQDNFWQNFLF | -0.079 ± 0.23
WCPSSSM | inactive
WDAPKCNSVNYLLKDHYHRC | inactive
WDEIIY | inactive
WDIMSRYLCMYIGYTARRCM | inactive
WDKMYDDEGKGIVLEVVFLR | -0.012 ± 0.87

Substance | amyloid nucleation score
WDNLCGTAFHAVN | inactive
WEGRLDCFSMRWLQMLGSND | inactive
WEILYPEGWFWTFRRSGVGS | inactive
WEKYMRMSGRPMGRFKMTGR | inactive
WFDWVMVTYEGLSTVF | inactive
WFEEATRGRNETS | inactive
WFFDTDIFHCEFEKMYYPLV | inactive
WFFTLCSSDQVSRGMR | inactive
WFGKPFYTYSKSSWRMLYQL | inactive
WFISTFDLDRYKFASCSKAW | inactive
WFPMSAKLYAHATHCVPLSL | inactive
WFRTGLAKNSISSGVGVMCH | inactive
WFSYQFV | inactive
WGMICIVYCVGIDMWLYVKC | inactive
WGTLTLCTGDAGLSMTGKWV | 0.399 ± 0.43
WGVHCMSQDVRVWWLSLWGG | inactive
WGVNYMLWDCIYEATLSLIP | inactive
WHCVSFKLNDL | inactive
WHMWMESKLWQPQRATSVFP | inactive
WHSYTKLCGRTSPPSSTLTG | inactive
WHTAKGTWSTGRQEDTGQSR | inactive
